Measured values taken from the supplement of paper PMC11246515.
± gives the standard deviation of the averaged measurements.

Experiment: total protein half-life in vivo (active degradation + dilution); higher = more stable protein
[1] = E. coli NCM3722 delta-clpP delta-lon delta-hslV, growth: N-lim chemostat, doubling time 6 h
[2] = E. coli NCM3722 delta-clpP, growth: N-lim chemostat, doubling time 6 h
[3] = E. coli NCM3722 delta-hslV, growth: N-lim chemostat, doubling time 6 h
[4] = E. coli NCM3722 delta-lon, growth: N-lim chemostat, doubling time 6 h
[5] = E. coli NCM3722 delta-smpB, growth: N-lim chemostat, doubling time 6 h
[6] = wild type E. coli NCM3722, growth: C-lim chemostat, doubling time 3 h
[7] = wild type E. coli NCM3722, growth: C-lim chemostat, doubling time 6 h
[8] = wild type E. coli NCM3722, growth: C-lim chemostat, doubling time 12 h
[9] = wild type E. coli NCM3722, growth: N-lim chemostat, doubling time 6 h
[10] = wild type E. coli NCM3722, growth: P-lim chemostat, doubling time 6 h
[11] = wild type E. coli NCM3722, growth: P-lim chemostat, doubling time 12 h
[12] = wild type E. coli NCM3722, growth: N-lim chemostat, doubling time 12 h

Row | Sequence | total protein half-life in vivo [1] [h] | total protein half-life in vivo [2] [h] | total protein half-life in vivo [3] [h] | total protein half-life in vivo [4] [h] | total protein half-life in vivo [5] [h] | total protein half-life in vivo [6] [h] | total protein half-life in vivo [7] [h] | total protein half-life in vivo [8] [h] | total protein half-life in vivo [9] [h] | total protein half-life in vivo [10] [h] | total protein half-life in vivo [11] [h] | total protein half-life in vivo [12] [h]
1 | MAYKHILIAVDLSPESKVLVEKAVSMARPYNAKVSLIHVDVNYSDLYTGLIDVNLGDMQKRISEETHHALTELSTNAGYPITETLSGSGDLGQVLVDAIKKYDMDLVVCGHHQDFWSKLMSSARQLINTVHVDMLIVPLRDEEE [P0AED0] | 3.96 | 4.94 ± 0.073 | 4.31 ± 0.27 | 4.3 ± 0.64 | 4.52 ± 0.15 | 3.34 ± 0.46 | 5.16 ± 0.1 | 10.7 ± 1.6 | 4.305 ± 0.0018 | 5.92 ± 0.084 | 9.86 ± 1.9 | 
2 | MAYLVAVTACVSGVAHTYMAAERLEKLCLLEKWGVSIETQGALGTENRLADEDIRRADVALLITDIELAGAERFEHCRYVQCSIYAFLREPQRVMSAVRKVLSAPQQTHLILE | 4.98 |  |  |  |  |  |  |  |  |  |  | 
3 | MAYQSQDIIRRSATNGLTPAPQARDFQEEVAKLIDVTTCIGCKACQVACSEWNDIRDTVGNNIGVYDNPNDLSAKSWTVMRFSEVEQNDKLEWLIRKDGCMHCSDPGCLKACPAEGAIIQYANGIVDFQSEQCIGCGYCIAGCPFDIPRLNPEDNRVYKCTLCVDRVVVGQEPACVKTCPTGAIHFGTKESMKTLASERVAELKTRGYDNAGLYDPAGVGGTHVMYVLHHADKPNLYHGLPENPEISETVKFWKGIWKPLAAVGFAATFAASIFHYVGVGPNRADEEENNLHEEKDEERK [P0AAJ5] | 4.44 ± 0.47 |  | 3.37 |  | 3.15 |  | 6.15 | 7.88 | 5.98 ± 0.62 | 5.29 |  | 
4 | MAYRDQPLGELALSIPRASALFRKYDMDYCCGGKQTLARAAARKELDVEVIEAELAKLAEQPIEKDWRSAPLAEIIDHIIVRYHDRHREQLPELILQATKVERVHADKPSVPKGLTKYLTMLHEELSSHMMKEEQILFPMIKQGMGSQAMGPISVMESEHDEAGELLEVIKHTTNNVTPPPEACTTWKAMYNGINELIDDLMDHISLENNVLFPRALAGE |  |  |  | > 8 | 2.54 | 2.72 |  |  |  |  |  | 
5 | MAYSIGIDSGSTATKGILLADGVITRRFLVPTPFRPATAITEAWETLREGLETTPFLTLTGYGRQLVDFADKQVTEISCHGLGARFLAPATRAVIDIGGQDSKVIQLDDDGNLCDFLMNDKCAAGTGRFLEVISRTLGTSVEQLDSITENVTPHAITSMCTVFAESEAISLRSAGVAPEAILAGVINAMARRSANFIARLSCEAPILFTGGVSHCQKFARMLESHLRMPVNTHPDAQFAGAIGAAVIGQRVRTRR | 4.12 | 4.27 |  |  |  | 2.01 ± 0.18 | 3.66 ± 0.33 | 6.35 ± 0.44 |  |  |  | 
6 | MAYTTFSQTKNDQLKEPMFFGQPVNVARYDQQKYDIFEKLIEKQLSFFWRPEEVDVSRDRIDYQALPEHEKHIFISNLKYQTLLDSIQGRSPNVALLPLISIPELETWVETWAFSETIHSRSYTHIIRNIVNDPSVVFDDIVTNEQIQKRAEGISSYYDELIEMTSYWHLLGEGTHTVNGKTVTVSLRELKKKLYLCLMSVNALEAIRFYVSFACSFAFAERELMEGNAKIIRLIARDEALHLTGTQHMLNLLRSGADDPEMAEIAEECKQECYDLFVQAAQQEKDWADYLFRDGSMIGLNKDILCQYVEYITNIRMQAVGLDLPFQTRSNPIPWINTWLVSDNVQVAPQEVEVSSYLVGQIDSEVDTDDLSNFQL | 4.55 ± 0.57 | 4.92 ± 1.1 | 3.45 ± 0.054 | 4.25 ± 0.52 | 3.62 ± 0.26 | 3.04 ± 0.28 | 5.7 ± 0.76 | 9.25 ± 0.099 | 3.415 ± 0.022 | 5.24 ± 0.12 | 9.5 ± 0.26 | 5.12 ± 0.56
7 | MCEGYVEKPLYLLIAEWMMAENRWVIAREISIHFDIEHSKAVNTLTYILSEVTEISCEVKMIPNKLEGRGCQCQRLVKVVDIDEQIYARLRNNSREKLVGVRKTPRIPAVPLTELNREQKWQMMLSKSMRR [P0AE58] | 3.96 ± 0.18 |  |  |  |  |  |  |  |  |  |  | 
8 | MCIGVPGQVLAVGEDIHQLAQVEVCGIKRDVNIALICEGNPADLLGQWVLVHVGFAMSIIDEDEAKATLDALRQMDYDITSA [P0AAM7] | 4.75 ± 0.12 |  |  |  |  |  | 2.77 |  |  |  | 2.51 | 
9 | MDAKQTRQGVLLALAAYFIWGIAPAYFKLIYYVPADEILTHRVIWSFFFMVVLMSICRQWSYLKTLIQTPQKIFMLAVSAVLIGGNWLLFIWAVNNHHMLEASLGYFINPLVNIVLGMIFLGERFRRMQWLAVILAICGVLVQLWTFGSLPIIALGLAFSFAFYGLVRKKIAVEAQTGMLIETMWLLPVAAIYLFAIADSSTSHMGQNPMSLNLLLIAAGIVTTVPLLCFTAAATRLRLSTLGFFQYIGPTLMFLLAVTFYGEKPGADKMVTFAFIWVALAIFVMDAIYTQRRTSK |  |  |  |  |  |  |  |  |  |  |  | 7.87
10 | MDDCGAILHNIETKWLYDFLTLEKCRNFSQAAVSRNVSQPAFSRRIRALEQAIGVELFNRQVTPLQLSEQGKIFHSQIRHLLQQLESNLAELRGGSDYAQRKIKIAAAHSLSLGLLPSIISQMPPLFTWAIEAIDVDEAVDKLREGQSDCIFSFHDEDLLEAPFDHIRLFESQLFPVCASDEHGEALFNLAQPHFPLLNYSRNSYMGRLINRTLTRHSELSFSTFFVSSMSELLKQVALDGCGIAWLPEYAIQQEIRSGKLVVLNRDELVIPIQAYAYRMNTRMNPVAERFWRELRELEIVLS | 5 ± 0.22 |  | 4.98 | 4.5 |  | 2.52 | 5.18 |  | 5.51 |  | 10.4 ± 0.27 | 
11 | MDDIVNSVPSWMFTAIIAVCILFIIGIIFARLYRRASAEQAFVRTGLGGQKVVMSGGAIVMPIFHEIIPINMNTLKLEVSRSTIDSLITKDRMRVDVVVAFFVRVKPSVEGIATAAQTLGQRTLSPEDLRMLVEDKFVDALRATAAQMTMHELQDTRENFVQGVQNTVAEDLSKNGLELESVSLTNFNQTSKEHFNPNNAFDAEGLTKLTQETERRRRERNEVEQDVEVAVREKNRDALSRKLEIEQQEAFMTLEQEQQVKTRTAEQNARIAAFEAERRREAEQTRILAERQIQETEIDREQAVRSRKVEAEREVRIKEIEQQQVTEIANQTKSIAIAAKSEQQSQAEARANLALAEAVSAQQNVETTRQTAEADRAKQVALIAAAQDAETKAVELTVRAKAEKEAAEMQAAAIVELAEATRKKGLAEAEAQRALNDAINVLSDEQTSLKFKLALLQALPAVIEKSVEPMKSIDGIKIIQVDGLNRGGAAGDANTGNVGGGNLAEQALSAALSYRTQAPLIDSLLNEIGVSGGSLAALTSPLTSTTPVEEKAE |  | 4.22 |  |  | 3.89 |  |  | 9.53 | 3.81 | 6.67 | 12.3 | 
12 | MDDQLKQSALDFHEFPVPGKIQVSPTKPLATQRDLALAYSPGVAAPCLEIEKDPLKAYKYTARGNLVAVISNGTAVLGLGNIGALAGKPVMEGKGVLFKKFAGIDVFDIEVDELDPDKFIEVVAALEPTFGGINLEDIKAPECFYIEQKLRERMNIPVFHDDQHGTAIISTAAILNGLRVVEKNISDVRMVVSGAGAAAIACMNLLVALGLQKHNIVVCDSKGVIYQGREPNMAETKAAYAVVDDGKRTLDDVIEGADIFLGCSGPKVLTQEMVKKMARAPMILALANPEPEILPPLAKEVRPDAIICTGRSDYPNQVNNVLCFPFIFRGALDVGATAINEEMKLAAVRAIAELAHAEQSEVVASAYGDQDLSFGPEYIIPKPFDPRLIVKIAPAVAKAAMESGVATRPIADFDVYIDKLTEFVYKTNLFMKPIFSQARKAPKRVVLPEGEEARVLHATQELVTLGLAKPILIGRPNVIEMRIQKLGLQIKAGVDFEIVNNESDPRFKEYWTEYFQIMKRRGVTQEQAQRALISNPTVIGAIMVQRGEADAMICGTVGDYHEHFSVVKNVFGYRDGVHTAGAMNALLLPSGNTFIADTYVNDEPDAEELAEITLMAAETVRRFGIEPRVALLSHSNFGSSDCPSSSKMRQALELVRERAPELMIDGEMHGDAALVEAIRNDRMPDSSLKGSANILVMPNMEAARISYNLLRVSSSEGVTVGPVLMGVAKPVHVLTPIASVRRIVNMVALAVVEAQTQPL | 5.85 ± 0.24 | 6.35 ± 2.2 | 5.84 ± 0.13 | 7.1 ± 0.61 | 5.6 ± 0.15 | 3.13 ± 0.15 | 5.948 ± 0.055 | 10.7 ± 0.31 | 5.97 ± 0.3 | 6.35 ± 0.11 | 12.2 ± 1.3 | 10.983 ± 0.005
13 | MDEFKPEDELKPDPSDRRTGRSRQSSERSERTERGEPQINFDDIELDDTDDRRPTRAQKERNEEPEIEEEIDESEDETVDEERVERRPRKRKKAASKPASRQYMMMGVGILVLLLLIIGIGSALKAPSTTSSDQTASGEKSIDLAGNATDQANGVQPAPGTTSAENTQQDVSLPPISSTPTQGQTPVATDGQQRVEVQGDLNNALTQPQNQQQLNNVAVNSTLPTEPATVAPVRNGNASRDTAKTQTAERPSTTRPARQQAVIEPKKPQATVKTEPKPVAQTPKRTEPAAPVASTKAPAATSTPAPKETATTAPVQTASPAQTTATPAAGAKTAGNVGSLKSAPSSHYTLQLSSSSNYDNLNGWAKKENLKNYVVYETTRNGQPWYVLVSGVYASKEEAKKAVSTLPADVQAKNPWAKPLRQVQADLK | 5.8 ± 0.35 | 6.01 ± 0.27 | 5.595 ± 0.021 | 5.74 ± 0.32 | 5.54 ± 0.12 | 2.84 ± 0.091 | 5.51 ± 0.26 | 9.07 ± 0.37 | 5.58 ± 0.49 | 5.099 ± 0.038 | 10.285 ± 0.01 | 11.9 ± 2
